The source of these data is publication PMC9638941, “Molecular basis of dual anti-CRISPR and auto-regulatory functions of AcrIF24” (Nucleic Acids Research, 2022).

Changes are numbered by the printed parent chain.

Data set [1] deals with T1, AcrIF24 S45Y (Pseudomonas aeruginosa prophage, UniProt A0AA82WNY5 1-228, S45Y).
T1 sequence: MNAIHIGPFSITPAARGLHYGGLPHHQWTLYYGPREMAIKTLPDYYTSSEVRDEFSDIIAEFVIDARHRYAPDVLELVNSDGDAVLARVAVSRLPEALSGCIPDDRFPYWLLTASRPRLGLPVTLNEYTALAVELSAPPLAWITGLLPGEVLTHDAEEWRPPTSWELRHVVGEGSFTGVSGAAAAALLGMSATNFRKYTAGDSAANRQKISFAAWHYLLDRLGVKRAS
The data set is described as follows: EMSA; 1 uM protein; EMSA-P: 10 mM HEPES pH 7.5, 1 mM MgCl2, 20 mM KCl, 1 mM TCEP, 5% glycerol, 30 min on ice; 10% native 0.5x TBE gel, SYBR Gold; Cascade EMSA buffer not in material. Conditions: protein: recombinant; chain copies: 2; label: none (SYBR Gold stain); blunt. (In general: A gel shift assay detects complexes by their altered migration in electrophoresis.)

Data set [2] has as its target T2, AcrIF24 K197Y (Pseudomonas aeruginosa prophage, UniProt A0AA82WNY5 1-228, K197Y).
T2 sequence: T1 sequence with Y45S, K197Y
Described as above. To be noted: protein: recombinant; chain copies: 2; label: none (SYBR Gold stain); blunt.

Data set [3] concerns the target T3, AcrIF24 R16W (Pseudomonas aeruginosa prophage, UniProt A0AA82WNY5 1-228, R16W).
T3 sequence: T1 sequence with R16W, Y45S
Described as above. To be noted: protein: recombinant; chain copies: 2; label: none (SYBR Gold stain); blunt.

Data set [4] has as its target T4, AcrIF24 R207W (Pseudomonas aeruginosa prophage, UniProt A0AA82WNY5 1-228, R207W).
T4 sequence: T1 sequence with Y45S, R207W
The data set is described as above. Conditions: protein: recombinant; chain copies: 2; label: none (SYBR Gold stain); blunt.

Data set [5] has as its target T5, AcrIF24 Y128K/Y217W (Pseudomonas aeruginosa prophage, UniProt A0AA82WNY5 1-228, Y128K;Y217W).
T5 sequence: T1 sequence with Y45S, Y128K, Y217W
In words: EMSA; EMSA-P: 10 mM HEPES pH 7.5, 1 mM MgCl2, 20 mM KCl, 1 mM TCEP, 5% glycerol, 30 min on ice; 10% native 0.5x TBE gel, SYBR Gold; Cascade EMSA buffer not in material. Conditions: protein: recombinant; label: none (SYBR Gold stain); blunt.

For data set [6], the target named is T1, AcrIF24 S45Y. In words: EMSA; native PAGE; EMSA-P: 10 mM HEPES pH 7.5, 1 mM MgCl2, 20 mM KCl, 1 mM TCEP, 5% glycerol, 30 min on ice; 10% native 0.5x TBE gel, SYBR Gold; Cascade EMSA buffer not in material. Conditions: protein: recombinant; chain copies: 2; label: none (SYBR Gold stain); blunt.
Data set [7] deals with T2, AcrIF24 K197Y. The description is as above. Conditions: protein: recombinant; chain copies: 2; label: none (SYBR Gold stain); blunt.
Data set [8] addresses T4, AcrIF24 R207W. The data set is described as above. To be noted: protein: recombinant; chain copies: 2; label: none (SYBR Gold stain); blunt.

B1: IR-S (dsDNA)
DNA 1: TAGCTCGATTCGAGCTA
DNA 2: TAGCTCGAATCGAGCTA
In the case of B1, the binding result in data set [1] was “binds”; in data set [2], “no binding”; in data set [3] it was “binds”; in data set [4] it was “no binding”.

B2: IR-L (dsDNA)
DNA 1: CAGAATATCATTGCATAGCTCGATTCGAGCTAATATAGTAATACCAACAGCGCGGCACACCGCCAGCACTGAACCT
DNA 2: AGGTTCAGTGCTGGCGGTGTGCCGCGCTGTTGGTATTACTATATTAGCTCGAATCGAGCTATGCAATGATATTCTG
As for B2, the binding result in data set [5] is reported as “no binding”; in data set [6] it was “binds”; in data set [7], “no binding”; in data set [8] it was “no binding”.
